Assay results taken from publication PMC7041687 (The Journal of Cell Biology, 2019).
Ends that are not written are not given here.

B3: His6-Thrombin-Sas4-606 (Sas4 amino acids 606–901) (domain or fragment, Drosophila, UniProt Q9VI72 606-901, looked up)
chain: RNIARLAPKVLPSATMSDILDENGRRTQSLDGTAGKPAKQREAQNRRQSSGSAQVRSRSRSLSRNKKTPYALDESYASSSSVESEEVQPPVTAPKAATPPPAANSSSDFKREITNADGSKDIWYPNGNLKKISADGMNLRMLYFNKDIKETNIREGTVKYYYAETNTWHTSYLDGLEILEFPNGQTEHRRKDGTVEIHFPNNSIKIVDPSDTEKLEEWRYADGTHLVQLRNGDKILNLPNGQKEIHTKLNKRREYPDGTVKLVYPDGSQETRYSNGRVRLKDKDGKLIMDTDYAKY

Legend:
Assay in all cases: BLI
[1] = target: B3
[2] = target: T1, Ana2 full length, wild type, nonphosphorylated (purified) (Drosophila, UniProt Q9XZ31 1-420)
T1 sequence (looked up): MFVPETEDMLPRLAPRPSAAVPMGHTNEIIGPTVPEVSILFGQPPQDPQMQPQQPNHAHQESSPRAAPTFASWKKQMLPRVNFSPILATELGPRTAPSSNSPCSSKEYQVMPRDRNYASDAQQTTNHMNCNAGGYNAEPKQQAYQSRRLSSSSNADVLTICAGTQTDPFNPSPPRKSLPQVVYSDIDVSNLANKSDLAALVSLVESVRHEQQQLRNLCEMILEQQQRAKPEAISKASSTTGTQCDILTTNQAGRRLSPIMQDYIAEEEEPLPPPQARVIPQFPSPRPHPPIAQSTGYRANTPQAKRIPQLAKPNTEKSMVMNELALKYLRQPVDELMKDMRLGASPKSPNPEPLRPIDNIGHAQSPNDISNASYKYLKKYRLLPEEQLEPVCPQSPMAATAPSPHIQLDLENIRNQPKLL

[3] = target: T2, Ana2 S38A full length, nonphosphorylated (purified) (Drosophila, UniProt Q9XZ31 1-420, S38A)
T2 sequence (looked up): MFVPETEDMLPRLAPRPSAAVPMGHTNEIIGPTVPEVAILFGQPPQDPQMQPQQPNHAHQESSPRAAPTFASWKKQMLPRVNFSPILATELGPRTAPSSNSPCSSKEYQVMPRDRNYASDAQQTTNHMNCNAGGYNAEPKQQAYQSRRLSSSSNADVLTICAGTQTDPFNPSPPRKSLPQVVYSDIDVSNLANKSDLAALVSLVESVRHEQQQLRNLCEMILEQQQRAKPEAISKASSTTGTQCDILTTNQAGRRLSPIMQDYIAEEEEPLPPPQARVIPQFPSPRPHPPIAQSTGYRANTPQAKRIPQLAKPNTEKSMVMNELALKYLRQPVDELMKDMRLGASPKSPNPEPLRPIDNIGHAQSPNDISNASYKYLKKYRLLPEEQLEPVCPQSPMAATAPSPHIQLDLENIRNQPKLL

B1: Ana2 1–60 (amino acids 1–60), nonphosphorylated (domain or fragment, Drosophila, UniProt Q9XZ31 1-60, looked up)
chain: MFVPETEDMLPRLAPRPSAAVPMGHTNEIIGPTVPEVSILFGQPPQDPQMQPQQPNHAHQ
[1]
  Kd: 134 nM

B2: Ana2 1–60 prephosphorylated with purified Plk4 (domain or fragment, Drosophila, UniProt Q9XZ31 1-60, looked up)
chain: MFVPETEDMLPRLAPRPSAAVPMGHTNEIIGPTVPEVSILFGQPPQDPQMQPQQPNHAHQ
modifications: also: prephosphorylated by Plk4, sites not listed
[1]
  Kd: 72 nM

## B3
[2]
  Kd: 26 nM
[3]
  Kd: 31 nM
